B1: HEEH_KT_rd6_0790 (parent)
chain: SEEEEEEWRRAKERGEEIIILGILWKPNDEEAERRIKEALRRV

Variants of: B1
Assay: folding stability dG (cDNA display proteolysis); higher = more stable
Details: PBS, room temperature

Variant	folding stability dG [kcal/mol]
SEEEEEEWRRAKERGEEIIIHGILWKPNDEEAERRIKEALRRV [L21H]	1.88
SEEEEEEWRRAKERGEEIIIGGILWKPNDEEAERRIKEALRRV [L21G]	1.27
SEEEEEEWRRAKERGEEIIIEGILWKPNDEEAERRIKEALRRV [L21E]	1.28
SEEEEEEWRRAKERGEEIIIDGILWKPNDEEAERRIKEALRRV [L21D]	1.04
SEEEEEEWRRAKERGEEIITLGILWKPNDEEAERRIKEALRRV [I20T]	0.843
SEEEEEEWRRAKERGEEIIWLGILWKPNDEEAERRIKEALRRV [I20W]	1.17
SEEEEEEWRRAKERGEEIIYLGILWKPNDEEAERRIKEALRRV [I20Y]	1.5
SEEEEEEWRRAKERGEEIIMLGILWKPNDEEAERRIKEALRRV [I20M]	1.28
SEEEEEEWRRAKERGEEIIFLGILWKPNDEEAERRIKEALRRV [I20F]	2.27
SEEEEEEWRRAKERGEEIIGLGILWKPNDEEAERRIKEALRRV [I20G]	0.748
SEEEEEEWRRAKERGEEIIVLGILWKPNDEEAERRIKEALRRV [I20V]	1.84
SEEEEEEWRRAKERGEEIIHLGILWKPNDEEAERRIKEALRRV [I20H]	0.981
SEEEEEEWRRAKERGEEIICLGILWKPNDEEAERRIKEALRRV [I20C]	2.07
SEEEEEEWRRAKERGEEIINLGILWKPNDEEAERRIKEALRRV [I20N]	0.804
SEEEEEEWRRAKERGEEIIKLGILWKPNDEEAERRIKEALRRV [I20K]	0.813
SEEEEEEWRRAKERGEEIIRLGILWKPNDEEAERRIKEALRRV [I20R]	1.08
SEEEEEEWRRAKERGEEIIDLGILWKPNDEEAERRIKEALRRV [I20D]	0.628
SEEEEEEWRRAKERGEEIIPLGILWKPNDEEAERRIKEALRRV [I20P]	0.587
SEEEEEEWRRAKERGEEIIALGILWKPNDEEAERRIKEALRRV [I20A]	0.825
SEEEEEEWRRAKERGEEIIQLGILWKPNDEEAERRIKEALRRV [I20Q]	0.945

Variant	folding stability dG [kcal/mol]
SEEEEEEWRRAKERGEEIIELGILWKPNDEEAERRIKEALRRV [I20E]	0.692
SEEEEEEWRRAKERGEEIILLGILWKPNDEEAERRIKEALRRV [I20L]	1.35
SEEEEEEWRRAKERGEEIISLGILWKPNDEEAERRIKEALRRV [I20S]	0.816
SEEEEEEWRRAKERGHEIIILGILWKPNDEEAERRIKEALRRV [E16H]	1.93
SEEEEEEWRRAKERGTEIIILGILWKPNDEEAERRIKEALRRV [E16T]	1.94
SEEEEEEWRRAKERGAEIIILGILWKPNDEEAERRIKEALRRV [E16A]	1.7
SEEEEEEWRRAKERGSEIIILGILWKPNDEEAERRIKEALRRV [E16S]	1.94
SEEEEEEWRRAKERGREIIILGILWKPNDEEAERRIKEALRRV [E16R]	1.66
SEEEEEEWRRAKERGKEIIILGILWKPNDEEAERRIKEALRRV [E16K]	1.96
SEEEEEEWRRAKERGNEIIILGILWKPNDEEAERRIKEALRRV [E16N]	1.71
SEEEEEEWRRAKERGYEIIILGILWKPNDEEAERRIKEALRRV [E16Y]	1.9
SEEEEEEWRRAKERGWEIIILGILWKPNDEEAERRIKEALRRV [E16W]	2.03
SEEEEEEWRRAKERGPEIIILGILWKPNDEEAERRIKEALRRV [E16P]	1.15
SEEEEEEWRRAKERGMEIIILGILWKPNDEEAERRIKEALRRV [E16M]	1.93
SEEEEEEWRRAKERGQEIIILGILWKPNDEEAERRIKEALRRV [E16Q]	2.05
SEEEEEEWRRAKERGDEIIILGILWKPNDEEAERRIKEALRRV [E16D]	1.95
SEEEEEEWRRAKERGVEIIILGILWKPNDEEAERRIKEALRRV [E16V]	2.15
SEEEEEEWRRAKERGFEIIILGILWKPNDEEAERRIKEALRRV [E16F]	2.04
SEEEEEEWRRAKERGGEIIILGILWKPNDEEAERRIKEALRRV [E16G]	1.61
SEEEEEEWRRAKERGLEIIILGILWKPNDEEAERRIKEALRRV [E16L]	2.28

Variant	folding stability dG [kcal/mol]
SEEEEEEWRRAKERGIEIIILGILWKPNDEEAERRIKEALRRV [E16I]	2.21
SEEEEEEWRRAKERGEEIWILGILWKPNDEEAERRIKEALRRV [I19W]	2.53
SEEEEEEWRRAKERGEEIHILGILWKPNDEEAERRIKEALRRV [I19H]	1.43
SEEEEEEWRRAKERGEEIDILGILWKPNDEEAERRIKEALRRV [I19D]	0.997
SEEEEEEWRRAKERGEEIYILGILWKPNDEEAERRIKEALRRV [I19Y]	2.2
SEEEEEEWRRAKERGEEIQILGILWKPNDEEAERRIKEALRRV [I19Q]	1.69
SEEEEEEWRRAKERGEEIGILGILWKPNDEEAERRIKEALRRV [I19G]	1.01
SEEEEEEWRRAKERGEEIMILGILWKPNDEEAERRIKEALRRV [I19M]	2.01
SEEEEEEWRRAKERGEEISILGILWKPNDEEAERRIKEALRRV [I19S]	1.52
SEEEEEEWRRAKERGEEIFILGILWKPNDEEAERRIKEALRRV [I19F]	2.08
SEEEEEEWRRAKERGEEILILGILWKPNDEEAERRIKEALRRV [I19L]	2.12
SEEEEEEWRRAKERGEEITILGILWKPNDEEAERRIKEALRRV [I19T]	2.14
SEEEEEEWRRAKERGEEIRILGILWKPNDEEAERRIKEALRRV [I19R]	1.77
SEEEEEEWRRAKERGEEIKILGILWKPNDEEAERRIKEALRRV [I19K]	1.49
SEEEEEEWRRAKERGEEIEILGILWKPNDEEAERRIKEALRRV [I19E]	1.85
SEEEEEEWRRAKERGEEIPILGILWKPNDEEAERRIKEALRRV [I19P]	0.976
SEEEEEEWRRAKERGEEIAILGILWKPNDEEAERRIKEALRRV [I19A]	1.33
SEEEEEEWRRAKERGEEINILGILWKPNDEEAERRIKEALRRV [I19N]	1.55
SEEEEEEWRRAKERGEEIVILGILWKPNDEEAERRIKEALRRV [I19V]	2.17

Source: the MegaScale stability set (Tsuboyama et al. 2023)
